The values that follow come from ChEMBL document CHEMBL1137666, “Biochemical Characterization of SFC-1, a class A carbapenem-hydrolyzing beta-lactamase” (Antimicrob Agents Chemother, 2007).

The target in data set [1] is Carbapenem-hydrolyzing beta-lactamase KPC (Klebsiella pneumoniae, UniProt Q9F663). In words: Inhibition of Klebsiella pneumoniae KPC-1 beta lactamase expressed in Escherichia coli DH5alpha by SDS-PAGE.
Substrate in data set [2]: CC(=O)OCC1=C(C(=O)O)N2C(=O)[C@@H](NC(=O)Cc3cccs3)[C@H]2SC1
In words: (§1) Ratio of Kcat to Km for Serratia fonticola UTAD54 SFC1 beta lactamase expressed in Escherichia coli BL21(DE3) by SDS-PAGE.

Substrate in data set [3]: CC(C)(O/N=C(\C(=O)N[C@@H]1C(=O)N2C(C(=O)[O-])=C(C[n+]3ccccc3)CS[C@H]12)c1csc(N)n1)C(=O)O
The description is as §1.

Substrate in data set [4]: CC1(C)S[C@@H]2[C@H](NC(=O)[C@H](N)c3ccccc3)C(=O)N2[C@H]1C(=O)O
The data set is described as §1.

Substrate in data set [5]: CCN1CCN(C(=O)N[C@@H](C(=O)N[C@@H]2C(=O)N3[C@@H]2SC(C)(C)[C@@H]3C(=O)O)c2ccccc2)C(=O)C1=O
The description is as §1.

Substrate in data set [6]: CO/N=C(\C(=O)N[C@@H]1C(=O)N2C(C(=O)O)=C(COC(C)=O)CS[C@H]12)c1csc(N)n1
Described as §1.

Substrate in data set [7]: CO[C@@]1(NC(=O)Cc2cccs2)C(=O)N2C(C(=O)O)=C(COC(N)=O)CS[C@@H]21
The data set is described as §1.

Substrate in data set [8]: C[C@@H](O)[C@H]1C(=O)N2C(C(=O)O)=C(SCCNC=N)C[C@H]12
The data set is described as §1.

Substrate in data set [9]: C[C@@H](O)[C@H]1C(=O)N2C(C(=O)O)=C(S[C@@H]3CN[C@H](C(=O)N(C)C)C3)[C@H](C)[C@H]12
Described as §1.

Substrate in data set [10]: C[C@H]1[C@H](NC(=O)/C(=N\OC(C)(C)C(=O)O)c2csc(N)n2)C(=O)N1S(=O)(=O)O
The data set is described as §1.

Substrate in data set [11]: CC(=O)OCC1=C(C(=O)O)N2C(=O)[C@@H](NC(=O)Cc3cccs3)[C@H]2SC1
The experiment in a line: (§2) Activity of Serratia fonticola UTAD54 SFC1 beta lactamase expressed in Escherichia coli BL21(DE3) by SDS-PAGE.

Substrate in data set [12]: CC(C)(O/N=C(\C(=O)N[C@@H]1C(=O)N2C(C(=O)[O-])=C(C[n+]3ccccc3)CS[C@H]12)c1csc(N)n1)C(=O)O
The description is as §2.

Substrate in data set [13]: CC1(C)S[C@@H]2[C@H](NC(=O)[C@H](N)c3ccccc3)C(=O)N2[C@H]1C(=O)O
Described as §2.

Substrate in data set [14]: CCN1CCN(C(=O)N[C@@H](C(=O)N[C@@H]2C(=O)N3[C@@H]2SC(C)(C)[C@@H]3C(=O)O)c2ccccc2)C(=O)C1=O
The description is as §2.

Substrate in data set [15]: CO/N=C(\C(=O)N[C@@H]1C(=O)N2C(C(=O)O)=C(COC(C)=O)CS[C@H]12)c1csc(N)n1
The data set is described as §2.

Substrate in data set [16]: CO[C@@]1(NC(=O)Cc2cccs2)C(=O)N2C(C(=O)O)=C(COC(N)=O)CS[C@@H]21
Described as §2.

Substrate in data set [17]: C[C@@H](O)[C@H]1C(=O)N2C(C(=O)O)=C(SCCNC=N)C[C@H]12
The data set is described as §2.

Substrate in data set [18]: C[C@@H](O)[C@H]1C(=O)N2C(C(=O)O)=C(S[C@@H]3CN[C@H](C(=O)N(C)C)C3)[C@H](C)[C@H]12
Described as §2.

Substrate in data set [19]: C[C@H]1[C@H](NC(=O)/C(=N\OC(C)(C)C(=O)O)c2csc(N)n2)C(=O)N1S(=O)(=O)O
Described as §2.

Chain of Carbapenem-hydrolyzing beta-lactamase KPC (Q9F663 whole entry): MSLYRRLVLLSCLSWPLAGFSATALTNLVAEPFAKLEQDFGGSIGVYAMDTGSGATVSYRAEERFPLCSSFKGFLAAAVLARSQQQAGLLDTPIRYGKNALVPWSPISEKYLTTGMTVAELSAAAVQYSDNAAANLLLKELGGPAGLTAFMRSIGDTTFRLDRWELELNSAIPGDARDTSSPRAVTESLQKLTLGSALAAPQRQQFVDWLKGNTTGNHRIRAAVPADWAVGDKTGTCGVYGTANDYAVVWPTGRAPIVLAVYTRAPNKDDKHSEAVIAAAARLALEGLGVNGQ

`C[C@]1(Cn2ccnn2)[C@H](C(=O)O)N2C(=O)C[C@H]2S1(=O)=O` [TAZOBACTAM] returned an IC50 in data set [1] of 374 nM.

B1: Carbapenem-hydrolizing beta-lactamase SFC-1 (Serratia fonticola), Q6JP75 (protein)
chain: MSRTGRLSVFFSAIFPLLTLTNMAEAASQPPQVTVDKLKRLENDFGGRIGVYAIDTGSNKTFGYRANERFPLCSSFKGFLAAAVLSKSQQQEGLLNQRIRYDNRVMEPHSPVTEKQITTGMTVAELSAATLQYSDNGAANLLLEKLIGGPEGMTSFMRSIGDNVFRLDRWELELNSAIPGDDRDTSTPKAVAESMQKLAFGNVLGLTERHQLMDWFKGNTTGGARIRASVPANWVVGDKTGTCGVYGTANDYAVIWPVGHAPIVLAVYTSKPDKNSKHSDAVIADASRIVLESFNIDALRMATGKSIGF
Regarding B1, the kcat/Km in [2] came out at 2170 mM⁻¹ s⁻¹; in [3] it was 40.4 mM⁻¹ s⁻¹; in data set [4] it was 881 mM⁻¹ s⁻¹; in data set [5], 1190 mM⁻¹ s⁻¹; in data set [6], 93.3 mM⁻¹ s⁻¹; in data set [7] it was 54.5 mM⁻¹ s⁻¹. In addition, the catalytic efficiency (kcat/Km) turned out to be 659 mM⁻¹ s⁻¹ in data set [8], 250 mM⁻¹ s⁻¹ in [9] and 335 mM⁻¹ s⁻¹ in data set [10]. The Michaelis-Menten constant (Km) amounted to 129 µM in data set [11]; 52 µM in data set [12]; 176 µM in [13]; 38 µM in [14]; 89 µM in data set [15]; 77 µM in [16]. Also, the results for the Km in [17], in data set [18] and in data set [19] were 82 µM, 26 µM and 484 µM, respectively. The kcat in [11] was determined as 280 s⁻¹; in data set [12], 2.1 s⁻¹; in data set [13], 155 s⁻¹; in data set [14], 44.7 s⁻¹; in data set [15], 8.3 s⁻¹; in data set [16], 4.2 s⁻¹. Besides, the catalytic constant (kcat) in data set [17] is 54 s⁻¹; in data set [18], 6.5 s⁻¹; in [19], 162 s⁻¹.

What is called IC50 is the concentration that gives 50% inhibition. For orientation: kcat/Km means the second-order rate constant that governs catalysis at low substrate concentration. A word on the Km: it is the concentration of substrate that gives half-maximal velocity. The term kcat denotes the maximal rate divided by the concentration of active sites.
